Test [1] addresses T1, human CLD18A1 (human, UniProt P56856 1-261).
T1 construct: on transfected HEK293 or CHO cells; also called claudin 18 splice variant 1; NP-057453
In words: flow cytometry on HEK293-CLD18A1 cells. On the technique in general: Flow cytometry measures light scatter and fluorescence of single cells or particles in a stream.

Test [2] deals with T1, human CLD18A1. The test is described as follows: summary of properties.
Test [3] deals with T2, murine CLD18A1 (mouse, UniProt P56857 1-264).
T2 construct: on transiently transfected HEK293 cells; also called mouse CLD18A1; NP-062789
In words: summary of properties.

In test [4] the target is T2, murine CLD18A1. In words: flow cytometry on transfected HEK293 cells.
Experimental: Binding of the identified monoclonal antibodies to murine CLD18A2 and CLD18A1 was analyzed by flow cytometry. […] Binding was assessed by flow cytometry using a BD FACSArray.
In test [5] the target is T1, human CLD18A1. In words: summary table of murine antibodies.
The target of test [6] is T2, murine CLD18A1. In words: summary table of murine antibodies.
For test [7], the target named is T3, Peptide 7, Cys-Ser exchange (human).
T3 construct: also called peptide 7 containing serines instead of the two cysteines
T3 peptide: RSSVRESSGFTESRG
The test is described as follows: SPOT peptide scan, peroxidase-conjugated antibody, luminescence; Cys-Ser exchange.

For test [8], the target named is T4, Peptide 7 RSCVRESSGFTECRG (human).
T4 construct: linear 15mer of the SPOT peptide scan, no exchange
T4 peptide: RSCVRESSGFTECRG
The test is described as follows: SPOT peptide scan, peroxidase-conjugated antibody, luminescence; no exchange.

The target of test [9] is T5, Peptide 1 MDQWSTQDLYNNPVT (human).
T5 construct: linear 15mer of the SPOT peptide scan; has no cysteine, so the Cys-Ser exchange row is the same peptide
T5 peptide: MDQWSTQDLYNNPVT
The description is as above.

Test [10] deals with T6, Peptide 6 QGLWRSCVRESSGFT (human).
T6 construct: linear 15mer of the SPOT peptide scan, no exchange
T6 peptide: QGLWRSCVRESSGFT
The description is as above.

For test [11], the target named is T7, Peptide 6, Cys-Ser exchange (human).
T7 peptide: QGLWRSSVRESSGFT
In words: SPOT peptide scan, peroxidase-conjugated antibody, luminescence; Cys-Ser exchange.

Test [12] concerns the target T8, Peptide 5, Cys-Ser exchange (human).
T8 peptide: VFNYQGLWRSSVRES
The description is as above.

Test [13] addresses T9, Peptide 5 VFNYQGLWRSCVRES (human).
T9 construct: linear 15mer of the SPOT peptide scan, no exchange
T9 peptide: VFNYQGLWRSCVRES
In words: SPOT peptide scan, peroxidase-conjugated antibody, luminescence; no exchange.

For test [14], the target named is T10, Peptide 3 LYNNPVTAVFNYQGL (human).
T10 construct: linear 15mer of the SPOT peptide scan; has no cysteine, so the Cys-Ser exchange row is the same peptide
T10 peptide: LYNNPVTAVFNYQGL
The test is described as above.

B1: ch-166E2 (antibody, V domains shown)
VH: QVQLQQSGPELVKPGASVKMSCKASGYTFTDYVISWVKQRTGQGLEWIGEIYPGSGSTYYNEKFKGKATLTADKSSNTAYMQLSSLTSEDSAVYFCARGVLLRAMDYWGQGTSVTVSS
VL: DIVMSQSPSSLAVSAGEKVTMSCKSSQSLLNSRTRKNYLAWYQQKPGQSPKLLIYWASTRESGVPDRFTGSGSGTDFTLTISSVQAEDLAVYYCKQSYNLYTFGGGTKLEIKR
notes: mouse/human chimeric, human gamma-1 and kappa constant regions; also called chimeric 166E2
As to B1, in the test with human CLD18A1 [1], the binding result is listed as “no binding”.

B2: 166E2 (antibody, IgG3, V domains shown)
VH: QVQLQQSGPELVKPGASVKMSCKASGYTFTDYVISWVKQRTGQGLEWIGEIYPGSGSTYYNEKFKGKATLTADKSSNTAYMQLSSLTSEDSAVYFCARGVLLRAMDYWGQGTSVTVSS
VL: DIVMSQSPSSLAVSAGEKVTMSCKSSQSLLNSRTRKNYLAWYQQKPGQSPKLLIYWASTRESGVPDRFTGSGSGTDFTLTISSVQAEDLAVYYCKQSYNLYTFGGGTKLEIK
notes: mouse monoclonal IgG3, kappa; also called 182-D1106-308
In the case of B2, the binding result with human CLD18A1 [2] and with murine CLD18A1 [3] was “no binding” throughout.

B3: ch-43A11 (antibody, V domains shown)
VH: QVQLQQSGAELMKPGASVKISCKATGYTFSSYWIEWVKQRPGHGLEWIGEILPGSGSTNYNEKFKGKATFTADTSSNTAYMQLSSLTSEDSAVYYCARYDYPWFAYWGQGTLVTVSA
VL: QIVLTQSPAIMSASPGEKVTITCSASSSVSYMHWFQQKPGTSPKLWIYSTSNLASGVPARFSGSGSGTSYSLTISRMEAEDAATYYCQQRSSYPPTFGGGTKLEIKR
notes: mouse/human chimeric, human gamma-1 and kappa constant regions; also called chimeric 43A11
For the molecule B3, in the test with human CLD18A1 [1], the binding result was “no binding”.

B4: 43A11 (antibody, IgG2a, V domains shown)
VH: QVQLQQSGAELMKPGASVKISCKATGYTFSSYWIEWVKQRPGHGLEWIGEILPGSGSTNYNEKFKGKATFTADTSSNTAYMQLSSLTSEDSAVYYCARYDYPWFAYWGQGTLVTVSA
VL: QIVLTQSPAIMSASPGEKVTITCSASSSVSYMHWFQQKPGTSPKLWIYSTSNLASGVPARFSGSGSGTSYSLTISRMEAEDAATYYCQQRSSYPPTFGGGTKLEIK
notes: mouse monoclonal IgG2a, kappa; also called 182-D1106-062; DSM ACC2742
With B4, the binding result with human CLD18A1 [1] was “no binding”.

B5: 163E12 (antibody, IgG3, V domains shown)
VH: QIQLVQSGPELKKPGETVKISCKASGYTFTNYGMNWVKQAPGKGLKWMGWINTNTGEPTYAEEFKGRFAFSLETSASTAYLQINNLKNEDTATYFCARLGFGNAMDYWGQGTSVTVSS
VL: DIVMTQSPSSLTVTAGEKVTMSCKSSQSLLNSGNQKNYLTWYQQKPGQPPKLLIYWASTRESGVPDRFTGSGSGTDFTLTISSVQAEDLAVYYCQNDYSYPLTFGAGTKLELK
notes: mouse monoclonal IgG3, kappa; also called 182-D1106-294; DSM ACC2809
Turning to B5, the binding result in the test with murine CLD18A1 [4] and in the test with human CLD18A1 [1] was “no binding” each time.

B6: ch-125E1 (antibody, V domains shown)
VH: QVQLQQSGAELARPGASVKLSCKASGYTFTDYYINWVKQRTGQGLEWIGEIYPGSGNTYYNEKFKGKATLTADKSSSTAYMQLSSLTSEDSAVYFCARSYGAFDYWGQGTTLTVSS
VL: DIVMTQSQKFMSTSVGDRVSITCKASQNVRTAVAWYQQKPGQSPKALIYLASNRHTGVPDRFTGSGSGTDFTLTISNVQSEDLADYFCLQHWNYPLTFGGGTKLEIKR
notes: mouse/human chimeric, human gamma-1 and kappa constant regions; also called chimeric 125E1
In the case of B6, the binding result with human CLD18A1 [1] is listed as “no binding”.

B7: 125E1 (antibody, IgG2a, V domains shown)
VH: QVQLQQSGAELARPGASVKLSCKASGYTFTDYYINWVKQRTGQGLEWIGEIYPGSGNTYYNEKFKGKATLTADKSSSTAYMQLSSLTSEDSAVYFCARSYGAFDYWGQGTTLTVSS
VL: DIVMTQSQKFMSTSVGDRVSITCKASQNVRTAVAWYQQKPGQSPKALIYLASNRHTGVPDRFTGSGSGTDFTLTISNVQSEDLADYFCLQHWNYPLTFGGGTKLEIK
notes: mouse monoclonal IgG2a, kappa; also called 182-D1106-279; DSM ACC2808
As for B7, the binding result in the test with human CLD18A1 [5] and with murine CLD18A1 [6] was “no binding” in each case.

B8: ch-175D10 (antibody, V domains shown)
VH: QVQLQQPGAELVRPGASVKLSCKASGYTFTSYWINWVKQRPGQGLEWIGNIYPSDSYTNYNQKFKDKATLTVDKSSSTAYMQLSSPTSEDSAVYYCTRSWRGNSFDYWGQGTTLTVSS
VL: DIVMTQSPSSLTVTAGEKVTMSCKSSQSLLNSGNQKNYLTWYQQKPGQPPKLLIYWASTRESGVPDRFTGSGSGTDFTLTISSVQAEDLAVYYCQNDYSYPFTFGSGTKLEIKR
notes: mouse/human chimeric, human gamma-1 and kappa constant regions; peroxidase-conjugated in the peptide scan; also called chimeric 175D10
Consider B8, for which the binding result in test [7], in test [8], in [9] and in test [10] was “binds” in each case.

B9: ch-163E12 (antibody, V domains shown)
VH: QIQLVQSGPELKKPGETVKISCKASGYTFTNYGMNWVKQAPGKGLKWMGWINTNTGEPTYAEEFKGRFAFSLETSASTAYLQINNLKNEDTATYFCARLGFGNAMDYWGQGTSVTVSS
VL: DIVMTQSPSSLTVTAGEKVTMSCKSSQSLLNSGNQKNYLTWYQQKPGQPPKLLIYWASTRESGVPDRFTGSGSGTDFTLTISSVQAEDLAVYYCQNDYSYPLTFGAGTKLELKR
notes: mouse/human chimeric, human gamma-1 and kappa constant regions; peroxidase-conjugated in the peptide scan; also called chimeric 163E12
Consider B9, for which the binding result in test [11], in [12], in test [13], in [9], in test [10] and in test [14] was “binds” in each case. In addition, the binding result with human CLD18A1 [1] is “no binding”.

Source of the values: patent US20100166779A1 (GANYMED PHARMACEUTICALS, published 2010).
